Laboratory results as given in the nanobody polyreactivity screen of Harvey et al. (2022).

Experiment: yeast display, Sf9 membrane polyspecificity reagent, FACS + sequencing; frameworks hold sequencing errors
In short: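 Nanobodies from a synthetic yeast display library (Saccharomyces cerevisiae BJ5465), induced 36–48 hours with galactose, were stained 1 hour at 4 °C with 10% biotinylated, detergent-solubilized Sf9 membrane reagent, enriched on streptavidin microbeads, then FACS-sorted. Anti-HA (expression) and streptavidin (reagent binding) fluorescence set low and high (top ~1%) gates. Polyreactivity labels come from the gate of origin. Genes were colony-PCR amplified, MiSeq 2 × 250 sequenced and filtered by CDR length.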

Sequence | polyreactivity (PSR sort gate)
QVQLVESGGGLVQAGGSLRLSCAASGFTFRKNAMGWYRQAPGKERELVAAISSGSGSTYYADSVKGRFTISRDNAKNTVYLQMNSLKPEDTAVYYCNSEAYYTTGYPTSDVFDRYDYWGKGTQVTVSS | low polyreactivity
QVQLVESGGGLVQAGGSLRLSCAASGFTFRKYAMGWYRQAPGKERELVADISGGTGSTYYADSVKGRFTISRDNAKNTDYLHMNSLKPEDTAVYYCNAEGWYYLTEYGYWGQGTQLTVSS | low polyreactivity
QVQLVESGGGLVQAGGSLRLSCAASGFTFRKYAMGWYRQAPGKESELVAAISWSGGSTYYADSVKGRFTISRDNAKNTVYLQMNSMKPEDTAVYYCAAPHWSPYDYWGQGTQVTVSS | high polyreactivity
QVQLVESGGGLVQAGGSLRLSCAASGFTFRLVNAMGWYRQAPGKERELVAGINSGDITYYADSVKGRFTISRDNAKNTVYLQMNSLKPEDTAVYYCAARVAWGYDYWGQGTQVTVSS | low polyreactivity
QVQLVESGGGLVQAGGSLRLSCAASGFTFRNYAMGWYIQAPGKERELVATISWSGTSTYYADSVKGRFTISRDNAKNTVYLQMNSLKPEDTAVYYCAARGRHSGYYSFPYYYWGQGTQVTVSS | low polyreactivity
QVQLVESGGGLVQAGGSLRLSCAASGFTFRNYAMGWYRQAPGKEREFVAAISFSGGRTYYADSVKGRFTISRDNAKNTVYLQMNSLKPEDTAVYYCAKKSYSKYDYWGQGTQVTVSS | low polyreactivity
QVQLVESGGGLVQAGGSLRLSCAASGFTFRPYVMGCYRQAPGKERELVAGISTGGSTYYADSVKGRFTISRDNAKNTVYLQMNSLKPEDTAVYYCAKRGKQYRKMNYWGQGTQVTVSS | high polyreactivity
QVQLVESGGGLVQAGGSLRLSCAASGFTFRQNAMGWYIQAPGKERELVAAISRGGGGTHYADSVKGRFTISRDNAKNNVYLHMNSLKPEDTAVYYCAKRRYPTFVVPVYYWGQGTQVTVSS | high polyreactivity
QVQLVESGGGLVQAGGSLRLSCAASGFTFRQNSIGWSRQAPGKERELVAAISRSGSRTYYADSVKGRFTISRDNAKNTVYLQMIRLKPEDTAVYYCKAVFSSFTVEYYWGQGTQVTVSS | high polyreactivity
QVQLVESGGGLVQAGGSLRLSCAASGFTFRRNAMGWYRQAPGKERELVAAITASGGRTYYADSVKGRFTISRDYAKNTVYLQMNSLKPEDTAVFYCAARLRNIYYFRMGYWGQGTKVTVSS | high polyreactivity
QVQLVESGGGLVQAGGSLRLSCAASGFTFRRNAMGWYRQAPGKERELVAAITRGGGSTYYADSVKGRFTISRDNAKNTVYLQMNSLKPEDTAVYYCAADGYYQYESWGQGTQVTVSS | high polyreactivity
QVQLVESGGGLVQAGGSLRLSCAASGFTFRRYAMGWYIQAPGKERELVAAIRSTGGSTYYADSVKGRFTISRDNAKNTVYLQMNSLKPEDTAVYYCNAGTPVRGYNYWGQGTQVTVSS | high polyreactivity
QVQLVESGGGLVQAGGSLRLSCAASGFTFRRYAMGWYRQAPGKERELVAAINWNGDSTYYADSVKGRFTISRDNAKNTVYLQMNSVKPEDTAVYYCATSDYYYDYWGQGTQVTVSS | high polyreactivity
QVQLVESGGGLVQAGGSLRLSCAASGFTFRRYAMGWYRQAPGKERELVAAISIRGGRTYYADSVKGRFTISRDNAKNTVYLQMNSLKPEDTAVYYCAAEVGFWGYGGYYYWGQGTQVTVSS | high polyreactivity
QVQLVESGGGLVQAGGSLRLSCAASGFTFRRYAMGWYRQAPGKERELVAAISYSGGITYYADSVKGRFTISRDNAKNTVYLQMNSLKPEDTAVYYCAAESVWTWYYTTAGMDYWGQGTQVTVSS | high polyreactivity
QVQLVESGGGLVQAGGSLRLSCAASGFTFRRYAMGWYRQAPGKERELVAAITWSGGSTYYADSVKGRFTISRDNAKNTVYLQMNSLKPEDTAVYYCNKAYSPLYFSYNYWGQGTQVTVSS | high polyreactivity
QVQLVESGGGLVQAGGSLRLSCAASGFTFRRYAMGWYRQAPGKERELVATITKGGGSTYYADSVKGRFTISRDNAKNTVYLQMNSLKPEDTAVYYCAKRYPYGLTVGASDYWGQCTQVTVSS | high polyreactivity
QVQLVESGGGLVQAGGSLRLSCAASGFTFRRYAMGWYRQAPGKERELVAVITSTDSTYYADSVKGRFTISRDNAKNTVYFQMYSLKPEDTAVYYCARVYLGPRYAVFIYGYWGQGTQVTVSS | high polyreactivity
QVQLVESGGGLVQAGGSLRLSCAASGFTFRRYAMGWYRQAPGKERELVAVITTAGSTNYADSVKGRFTISRDNAKNTVYLQMNSLKPEDTAVYYCATDNGTRKRRYDYWGQGTQVTVSS | low polyreactivity
QVQLVESGGGLVQAGGSLRLSCAASGFTFRRYAMGWYRQAPGKERELVAVITTGGSTYYADSVKGRFTISRDNAKYTVYLQMNSLKPEDTAVYYCAARYYWYSQEYVMSSWWGDYWGLGTQVTVSS | high polyreactivity
QVQLVESGGGLVQAGGSLRLSCAASGFTFRRYDMGWYRQAPGKERELVATINRGGSTDYADSVKGRFTISRDNAKNTVYLQMNSLKPEDTAVYYCATRYYSSRTWSEYYYWGQGTQVTVSS | high polyreactivity

Sequence | polyreactivity (PSR sort gate)
QVQLVESGGGLVQAGGSLRLSCAASGFTFRRYTMGWYRQAPGKERELVARISSRGGRTFYADSVKGRFTISRDNAKNTVYLQMNSLKPEDTAVYYCAKRAPYGTTSPGGDYWGQGTQVTVSS | high polyreactivity
QVQLVESGGGLVQAGGSLRLSCAASGFTFRRYVMGWYRQAPGKERELVAAISSGGRTNYADSVKGRFTISRYNAKNTVYLQMNSLKPEDTAVYYCNKASTSYYRFNYWGQGTQVTVSS | high polyreactivity
QVQLVESGGGLVQAGGSLRLSCAASGFTFRSNVMGWSRQAPGKERELVAGITQRGGRTYYADSEKGRFTISRDNAKNTVYLQMNSLKPEDTAVYYCAADRSEYDYWGQGTQVTVSS | high polyreactivity
QVQLVESGGGLVQAGGSLRLSCAASGFTFRSNVMGWYRQATGKERELVAAISWSGGSTYYADSVKGRFTISRDNAKNNVYLQMNSLKPEDTAVYYCATVQVVGPWSYRKLDYWGQGTQVTVSS | high polyreactivity
QVQLVESGGGLVQAGGSLRLSCAASGFTFRTNAMGWYRQAPGKERELVAVISRRGGSTYYADSVKGRFTISRDNAKNTVYLQMNSLKPEDTGVYYCNAGDGTVGRTYYRAYDYWGQGTQVTVSS | high polyreactivity
QVQLVESGGGLVQAGGSLRLSCAASGFTFRTYAMGWYRQAPGKERELVATIRRAGSTNYADSVKGRFTISRDNAKNTVYLQMNSLNPEDTAVYYCAARVVTRVRGVGYNYWGQGTQVTVSS | high polyreactivity
QVQLVESGGGLVQAGGSLRLSCAASGFTFRVNAMGWYRQAPGKERELVAAISSGGRTYYADSVKGRFTISRDNAKNTVYLQMNSLKPEDTAVYYCNAGRVRHGNDYWGQGTQVTVSS | high polyreactivity
QVQLVESGGGLVQAGGSLRLSCAASGFTFRVNAMGWYRQAPGKERELVAAISSGGSTNYADSVKGRFTISRDNAKYTVYLQMNSLKPEDTAVYYCAKRFKYIYYWGQGTQVTVSS | high polyreactivity
QVQLVESGGGLVQAGGSLRLSCAASGFTFRVNAMGWYRQAPGKERELVAAITYSGGSTYYADSVKGRFTISRDNAKNTVYLQMNSLKPEDTAVYYCNKARWNSWLYGYHYRGLRSYDYWGQGTQVSVSS | high polyreactivity
QVQLVESGGGLVQAGGSLRLSCAASGFTFRVNAMGWYRQAPGKERELVASITVSGGNTYYADSVKGRFTISRDNEKNTVYLLMNSLKPEDTAVYYCATDFSPVYYTRYDYWGQGTQVTVSS | low polyreactivity
QVQLVESGGGLVQAGGSLRLSCAASGFTFRVYAMGWYIQAPGKERELVAAITKRGGTTYYADSVKGRFTISRDNAKNTVYLQMNSLKPEDTAVYYCATENTPHYASHGYLGQGTQVTVSS | high polyreactivity
QVQLVESGGGLVQAGGSLRLSCAASGFTFRVYAMGWYRQAPGKERELVAVISGTGGRTYYADSVKGRFTISRDIAKNTVYLQMNSLKPEDTAVYYCARRGRPPAIYDYWGQGTQVTVSS | high polyreactivity
QVQLVESGGGLVQAGGSLRLSCAASGFTFRVYAMGWYRTAPVKEREFVASITWGGGRTYYADSVKGRFTISRDNAKNTVYLLMNSLKPEDTAVYYCAAYGSLDSYVSYYYWGQGTQVTVSS | high polyreactivity
QVQLVESGGGLVQAGGSLRLSCAASGFTFRWYAMGWYRPAPGKERELVADISRGGSTNYADSVKGRFTISRDNAKNTVYLQMNSLKPEDTAVYYCAAVVYRATYRVGGYLWYYYWGQGTQVTVSS | high polyreactivity
QVQLVESGGGLVQAGGSLRLSCAASGFTFRWYAMGWYRQAPGKERELVAAISSGGGSTYYADSVKGRFTISRDNAKNTVYLQMNSLKPEDTAVYYCNARIQYFKYRGYEYWGQGTQVTVSS | high polyreactivity
QVQLVESGGGLVQAGGSLRLSCAASGFTFRWYAMGWYRQAPGKERELVAAISSSGGSTYYADSVKGRFTISRDNAKNTVYLQMKSLKPEDTAVYYCNTDANYLTNTIYDYWGQGTQVTVSS | high polyreactivity
QVQLVESGGGLVQAGGSLRLSCAASGFTFRWYAMGWYRQAPGKERELVAAISTSGGSTYYADSVKGRFTITRDNAKNTVYLQMNSLKPEDTSVYYCNRVNNYPTRKYDYWGQGSQVTVSS | high polyreactivity
QVQLVESGGGLVQAGGSLRLSCAASGFTFRWYAMGWYRQAPGKERELVARISWDGGSTYYADSVKGRFTISRDNAKNTVYLQMNSLKPEDTAVYDCAKDWYYLRRNYDYWGQGTQVTVSS | high polyreactivity
QVQLVESGGGLVQAGGSLRLSCAASGFTFRWYTMGWYRPAPGKERELVAAISWSGTSTYYADSVKGRFTISRDNAKNTVYLQMNSLKPEDTAVYYCAAADFYYTGADDYWGQGTQVTVSS | high polyreactivity
QVQLVESGGGLVQAGGSLRLSCAASGFTFRWYTMGWYRQAPGKERELGAAINRGGSTYYADSVKGRFTISRDNAQNTVYLQMNSLKPEDTAVYYCAKSVSASWGRDYWGQGTQVTVSS | high polyreactivity
